B1: IQGAP2 (mouse, endogenous, liver lysate) (other, UniProt Q3UQ44 1-1575, looked up)
chain: MPHEELPSLQRPRYGSIVDDERLSAEEMDERRRQNIAYEYLCHLEEAKRWMEVCLVEELPPTTELEEGLRNGVYLAKLAKFFAPKMVSEKKIYDVEQTRYKKSGLHFRHTDNTVQWLRAMEAIGLPKIFYPETTDVYDRKNIPRMIYCIHALSLYLFKLGIAPQIQDLLGKVDFTEEEISNMRKELEKYGIQMPAFSKIGGILANELSVDEAALHAAVIAINEAIEKGVAKQTIITLRNPNAVLTCVDDSLSQEYQKELWEAKKKKEESAKLKNSCISEEERDAYEELLTQAEIQSNISTVNRMAAVDHINAVLQEGDPENTLLALKKPEAQLPAVYPFAAVMYQNELFNLQKQNTSNYLAHEELLIAVEMLSAVALLNQALESSDLVAVQNQLRSPTIGFNNLDEAHVDRYADALLSVKQEALSQGQDTLSWNEIQNCIDMINNQIQEENDRMVVLGYINEAIDAGNPLKTLDTLLLPTANIRDVDPDCAQHYQDVLFYTKSQKLGDPKNVSKVLWLDEIQQAINEANVDENRAKQWVTLVVDVNECLDRKQSDHILTALKSSPSNIHNILPECANKYYDTLVKAKESKTDNESSEGSWVTLNVQEKYNYYYNTDSKEGSWVPPELCLSKESWLTGEEIEDIVEEVTSDYIREKLWSASEDLLVRFEATTLGPALREEFEARKAFLYEQTESVVKIQAFWKGFKQRQEYLHRQQVFAGNVDSVVKIQSWFRMVTARKSYLSRLRYFEDHKNEIVKIQSLLRASKARDDYKALVGSENPPLTVIRKFVYLLDQSDLDFQEELEVARLREEVVTKIRANQQLEKDLNLMDIKIGLLVKNRITLEDVISHRKKLNKKKGGEIEILNNTDNKGIKSLSKERRKTLETYQQLFYLLQTKPSYLAKLIFQMPQNKSTKFMDTVIFTLYNYASNQREEYLLLKLFKTALEEEIKSKVDQVQDIVTGNPTVIKMVVSFNRGARGQNTLRQLLAPVVKEIIEDKALVINTNPVEVYKAWVNQLETQTGEASKLPYDVTTEQALTYPEVKNKLEASIENLRKVTDKVLGSIISSLDLLPYGLRYIAKVLKNSIREKFPDATEEELLKIVGNLLYYRYMNPAIVAPDGFDIIDMTAGGQINSNQRRNLGSVAKVLQHAASNKLFEGENEHLSSMNNYLSETYQEFRKYFQEACDVPEPEEKFNMDKYTDLVTVSKPVIYISIEEIINTHLLLLEHQDAIATEKSDLLNELLESLGEVPTVESFLGEGAVDPNDPNKENTLNQLSKTEISLSLTSKYDVKDGEAVDGRSLMIKTKKLIIDVTRNQPGSTLTEILETPATGQQELEHAKDMESRAVVDSRTPEEGKQSQAVIEDARLPLEQKKRKIQRNLRTLEQTGHVSSKNKYQDILNEIAKDIRNQRIHRKLRKAELSKLQQTLNALNKKAAFYEDQINYYDTYIKTCVDNLKRKNSRRSIKLDGKAEPKGTKRVKPVRYTAAKLHDKGVLLGIDDLQTNQFKNVMFDIIATEDMGIFDVRSKFLGVEMEKVQLNIQDLLQMQYEGVAVMKMFDKVKVNVNLLIYLLNKKFYGK
B2: E-cadherin (mouse, endogenous, liver lysate) (other, UniProt P09803 157-884, looked up)
chain: DWVIPPISCPENEKGEFPKNLVQIKSNRDKETKVFYSITGQGADKPPVGVFIIERETGWLKVTQPLDREAIAKYILYSHAVSSNGEAVEDPMEIVITVTDQNDNRPEFTQEVFEGSVAEGAVPGTSVMKVSATDADDDVNTYNAAIAYTIVSQDPELPHKNMFTVNRDTGVISVLTSGLDRESYPTYTLVVQAADLQGEGLSTTAKAVITVKDINDNAPVFNPSTYQGQVPENEVNARIATLKVTDDDAPNTPAWKAVYTVVNDPDQQFVVVTDPTTNDGILKTAKGLDFEAKQQYILHVRVENEEPFEGSLVPSTATVTVDVVDVNEAPIFMPAERRVEVPEDFGVGQEITSYTAREPDTFMDQKITYRIWRDTANWLEINPETGAIFTRAEMDREDAEHVKNSTYVALIIATDDGSPIATGTGTLLLVLLDVNDNAPIPEPRNMQFCQRNPQPHIITILDPDLPPNTSPFTAELTHGASVNWTIEYNDAAQESLILQPRKDLEIGEYKIHLKLADNQNKDQVTTLDVHVCDCEGTVNNCMKAGIVAAGLQVPAILGILGGILALLILILLLLLFLRRRTVVKEPLLPPDDDTRDNVYYYDEEGGGEEDQDFDLSQLHRGLDARPEVTRNDVAPTLMSVPQYRPRPANPDEIGNFIDENLKAADSDPTAPPYDSLLVFDYEGSGSEAASLSSLNSSESDQDQDYDYLNEWGNRFKKLADMYGGGEDD
B3: human IQGAP2 (cDNA, transiently expressed in COS1 cells) (other, UniProt Q13576 1-1575, looked up)
chain: MPHEELPSLQRPRYGSIVDDERLSAEEMDERRRQNIAYEYLCHLEEAKRWMEVCLVEELPPTTELEEGLRNGVYLAKLAKFFAPKMVSEKKIYDVEQTRYKKSGLHFRHTDNTVQWLRAMESIGLPKIFYPETTDVYDRKNIPRMIYCIHALSLYLFKLGIAPQIQDLLGKVDFTEEEISNMRKELEKYGIQMPSFSKIGGILANELSVDEAALHAAVIAINEAVEKGIAEQTVVTLRNPNAVLTLVDDNLAPEYQKELWDAKKKKEENARLKNSCISEEERDAYEELLTQAEIQGNINKVNRQAAVDHINAVIPEGDPENTLLALKKPEAQLPAVYPFAAAMYQNELFNLQKQNTMNYLAHEELLIAVEMLSAVALLNQALESNDLVSVQNQLRSPAIGLNNLDKAYVERYANTLLSVKLEVLSQGQDNLSWNEIQNCIDMVNAQIQEENDRVVAVGYINEAIDEGNPLRTLETLLLPTANISDVDPAHAQHYQDVLYHAKSQKLGDSESVSKVLWLDEIQQAVDDANVDKDRAKQWVTLVVDVNQCLEGKKSSDILSVLKSSTSNANDIIPECADKYYDALVKAKELKSERVSSDGSWLKLNLHKKYDYYYNTDSKESSWVTPESCLYKESWLTGKEIEDIIEEVTVGYIRENIWSASEELLLRFQATSSGPILREEFEARKSFLHEQEENVVKIQAFWKGYKQRKEYMHRRQTFIDNTDSIVKIQSWFRMATARKSYLSRLQYFRDHNNEIVKIQSLLRANKARDDYKTLVGSENPPLTVIRKFVYLLDQSDLDFQEELEVARLREEVVTKIRANQQLEKDLNLMDIKIGLLVKNRITLEDVISHSKKLNKKKGGEMEILNNTDNQGIKSLSKERRKTLETYQQLFYLLQTNPLYLAKLIFQMPQNKSTKFMDTVIFTLYNYASNQREEYLLLKLFKTALEEEIKSKVDQVQDIVTGNPTVIKMVVSFNRGARGQNTLRQLLAPVVKEIIDDKSLIINTNPVEVYKAWVNQLETQTGEASKLPYDVTTEQALTYPEVKNKLEASIENLRRVTDKVLNSIISSLDLLPYGLRYIAKVLKNSIHEKFPDATEDELLKIVGNLLYYRYMNPAIVAPDGFDIIDMTAGGQINSDQRRNLGSVAKVLQHAASNKLFEGENEHLSSMNNYLSETYQEFRKYFKEACNVPEPEEKFNMDKYTDLVTVSKPVIYISIEEIISTHSLLLEHQDAIAPEKNDLLSELLGSLGEVPTVESFLGEGAVDPNDPNKANTLSQLSKTEISLVLTSKYDIEDGEAIDSRSLMIKTKKLIIDVIRNQPGNTLTEILETPATAQQEVDHATDMVSRAMIDSRTPEEMKHSQSMIEDAQLPLEQKKRKIQRNLRTLEQTGHVSSENKYQDILNEIAKDIRNQRIYRKLRKAELAKLQQTLNALNKKAAFYEEQINYYDTYIKTCLDNLKRKNTRRSIKLDGKGEPKGAKRAKPVKYTAAKLHEKGVLLDIDDLQTNQFKNVTFDIIATEDVGIFDVRSKFLGVEMEKVQLNIQDLLQMQYEGVAVMKMFDKVKVNVNLLIYLLNKKFYGK

In assay [1] the target is IQGAP1 (mouse, endogenous, liver lysate) (mouse, UniProt Q9JKF1 2-1657). The experiment in a line: reciprocal co-immunoprecipitation from normal mouse hepatocyte/liver lysates, immunoblot detection. As to the method: (§1) To further probe the relationships between IQGAP1, IQGAP2, β-catenin, and E-cadherin, a series of immunoprecipitation experiments were conducted using whole-liver lysates from Iqgap1^{-/-}, Iqgap2^{-/-}, and wildtype mice. […] In contrast, there was no evidence for specific interaction between E-cadherin and IQGAP2 in either E-cadherin- or IQGAP2-specific immunoprecipitations. […] Using normal hepatocytes, however, neither IQGAP1- nor IQGAP2-specific pull-down assays coprecipitated the corresponding homologous protein. Transient transfections of […] (which endogenously express IQGAP1) were subsequently used as an in vitro model system to specifically address the existence of putative IQGAP1-IQGAP2 heterodimers. As evident in FIG. 15B, IQGAP1 or IQGAP2 were not pulled down by reciprocal immunoprecipitations. Thus, while IQGAP1 and IQGAP2 are normally found as components of a broader quarternary scaffolding complex in hepatocytes, there appears to be no evidence that their presence within this scaffold occurs via direct (heterodimeric) interactions.
Chain of IQGAP1 (mouse, endogenous, liver lysate) (Q9JKF1 2-1657 limits assumed): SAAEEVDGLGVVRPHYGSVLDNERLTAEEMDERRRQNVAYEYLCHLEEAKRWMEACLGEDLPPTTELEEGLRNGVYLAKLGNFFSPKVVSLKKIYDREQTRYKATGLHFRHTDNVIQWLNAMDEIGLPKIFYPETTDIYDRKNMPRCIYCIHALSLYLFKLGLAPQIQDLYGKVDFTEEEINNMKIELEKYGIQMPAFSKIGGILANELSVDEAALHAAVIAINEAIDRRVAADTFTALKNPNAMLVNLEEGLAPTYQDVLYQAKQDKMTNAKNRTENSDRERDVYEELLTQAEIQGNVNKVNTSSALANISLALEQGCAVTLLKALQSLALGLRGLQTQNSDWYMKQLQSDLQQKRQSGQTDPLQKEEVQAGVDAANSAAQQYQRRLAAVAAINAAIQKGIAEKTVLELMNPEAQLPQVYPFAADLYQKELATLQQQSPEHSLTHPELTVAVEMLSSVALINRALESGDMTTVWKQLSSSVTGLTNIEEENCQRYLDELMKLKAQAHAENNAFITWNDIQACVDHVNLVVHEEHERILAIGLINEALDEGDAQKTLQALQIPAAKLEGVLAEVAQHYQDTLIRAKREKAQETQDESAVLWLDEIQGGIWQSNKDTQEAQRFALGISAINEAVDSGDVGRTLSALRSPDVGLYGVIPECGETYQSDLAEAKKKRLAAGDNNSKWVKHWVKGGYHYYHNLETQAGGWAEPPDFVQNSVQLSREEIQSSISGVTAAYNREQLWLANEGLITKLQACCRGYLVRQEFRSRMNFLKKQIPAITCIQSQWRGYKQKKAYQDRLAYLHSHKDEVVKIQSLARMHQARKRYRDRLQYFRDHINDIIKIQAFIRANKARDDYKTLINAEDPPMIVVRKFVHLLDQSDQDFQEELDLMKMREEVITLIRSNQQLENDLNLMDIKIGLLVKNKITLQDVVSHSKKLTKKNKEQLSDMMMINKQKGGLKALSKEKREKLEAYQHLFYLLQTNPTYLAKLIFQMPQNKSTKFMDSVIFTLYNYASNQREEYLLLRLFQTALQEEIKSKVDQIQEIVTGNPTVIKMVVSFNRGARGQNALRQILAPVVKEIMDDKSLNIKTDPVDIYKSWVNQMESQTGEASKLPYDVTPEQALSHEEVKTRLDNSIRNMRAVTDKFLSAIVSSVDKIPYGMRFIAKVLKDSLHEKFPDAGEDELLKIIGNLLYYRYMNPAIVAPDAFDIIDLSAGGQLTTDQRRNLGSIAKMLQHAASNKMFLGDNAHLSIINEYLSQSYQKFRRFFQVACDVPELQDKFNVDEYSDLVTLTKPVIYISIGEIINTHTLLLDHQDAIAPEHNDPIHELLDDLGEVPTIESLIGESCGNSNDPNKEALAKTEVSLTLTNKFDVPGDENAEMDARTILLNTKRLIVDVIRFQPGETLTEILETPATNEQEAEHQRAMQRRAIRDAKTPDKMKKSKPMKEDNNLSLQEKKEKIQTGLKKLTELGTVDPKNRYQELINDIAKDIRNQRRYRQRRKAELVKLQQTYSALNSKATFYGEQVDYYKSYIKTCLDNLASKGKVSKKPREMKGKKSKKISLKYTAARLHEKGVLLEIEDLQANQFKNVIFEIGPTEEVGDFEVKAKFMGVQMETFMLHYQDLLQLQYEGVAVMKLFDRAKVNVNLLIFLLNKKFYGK
(§2) Immunoprecipitation experiments were completed using freshly isolated murine livers essentially as described previously (Schmidt, V. A., et al. 2003. Blood 101:3021-3028). In brief, intact livers were homogenized in 25 mM HEPES-0.15 M NaCl buffer, pH 7.45, supplemented with 0.1% Triton X-100 and standard protease inhibitors. […]
A general note: Immunoblotting shows a protein as a band on a membrane.

For assay [2], the target named is B1. The experiment in a line: co-immunoprecipitation from mouse whole-liver lysates, immunoblot detection. The method, then: as §1, §2
The target of assay [3] is human IQGAP1 (full-length cDNA, transiently expressed in COS1 cells) (human, UniProt P46940 2-1657). The assay is described as follows: reciprocal co-immunoprecipitation from lysates of transiently transfected COS1 cells, immunoblot detection. As to the method: as §1, §2
Chain of human IQGAP1 (full-length cDNA, transiently expressed in COS1 cells) (P46940 2-1657 limits assumed): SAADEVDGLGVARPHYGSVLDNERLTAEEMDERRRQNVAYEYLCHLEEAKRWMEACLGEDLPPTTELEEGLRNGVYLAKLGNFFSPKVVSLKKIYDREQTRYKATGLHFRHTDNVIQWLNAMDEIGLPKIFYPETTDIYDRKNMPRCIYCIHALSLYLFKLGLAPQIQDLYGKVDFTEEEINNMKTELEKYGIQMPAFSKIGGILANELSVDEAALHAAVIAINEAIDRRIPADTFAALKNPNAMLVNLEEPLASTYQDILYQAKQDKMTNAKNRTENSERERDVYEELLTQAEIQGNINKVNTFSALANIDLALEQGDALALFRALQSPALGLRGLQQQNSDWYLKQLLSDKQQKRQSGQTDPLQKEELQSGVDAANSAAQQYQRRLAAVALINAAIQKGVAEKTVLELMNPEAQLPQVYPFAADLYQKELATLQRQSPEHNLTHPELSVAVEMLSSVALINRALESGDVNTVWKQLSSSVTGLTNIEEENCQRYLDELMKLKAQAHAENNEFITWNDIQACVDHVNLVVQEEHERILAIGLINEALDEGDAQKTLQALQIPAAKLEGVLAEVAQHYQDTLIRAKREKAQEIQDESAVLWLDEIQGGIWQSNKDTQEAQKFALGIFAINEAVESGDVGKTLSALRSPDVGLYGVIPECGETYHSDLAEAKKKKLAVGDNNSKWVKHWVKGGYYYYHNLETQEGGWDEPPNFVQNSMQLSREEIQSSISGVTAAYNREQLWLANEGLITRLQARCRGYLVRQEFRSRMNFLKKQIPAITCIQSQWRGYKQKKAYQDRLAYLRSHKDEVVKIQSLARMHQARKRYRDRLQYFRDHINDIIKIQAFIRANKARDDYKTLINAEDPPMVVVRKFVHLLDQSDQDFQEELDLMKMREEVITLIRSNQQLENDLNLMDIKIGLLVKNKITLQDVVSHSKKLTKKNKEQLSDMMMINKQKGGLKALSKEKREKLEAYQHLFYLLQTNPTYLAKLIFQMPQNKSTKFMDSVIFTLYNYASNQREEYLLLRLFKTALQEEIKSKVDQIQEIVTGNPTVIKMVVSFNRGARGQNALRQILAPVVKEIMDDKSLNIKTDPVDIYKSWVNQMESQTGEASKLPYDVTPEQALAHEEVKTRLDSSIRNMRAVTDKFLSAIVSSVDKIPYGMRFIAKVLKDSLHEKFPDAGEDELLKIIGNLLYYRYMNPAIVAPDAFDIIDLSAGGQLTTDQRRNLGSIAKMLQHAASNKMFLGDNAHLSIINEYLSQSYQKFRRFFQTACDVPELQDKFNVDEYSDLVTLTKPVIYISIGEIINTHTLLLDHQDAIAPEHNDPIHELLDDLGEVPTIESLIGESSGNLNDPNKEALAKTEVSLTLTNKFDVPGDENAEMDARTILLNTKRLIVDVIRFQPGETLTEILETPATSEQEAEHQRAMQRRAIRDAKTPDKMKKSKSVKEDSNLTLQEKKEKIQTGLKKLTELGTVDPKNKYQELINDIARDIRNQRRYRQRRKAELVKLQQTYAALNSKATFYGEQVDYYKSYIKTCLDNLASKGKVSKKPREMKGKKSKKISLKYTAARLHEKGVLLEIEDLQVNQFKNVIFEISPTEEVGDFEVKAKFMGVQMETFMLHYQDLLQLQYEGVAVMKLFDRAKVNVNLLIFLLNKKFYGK

Take B1: the binding result in assay [1] was “no binding”.

B2: the binding result in assay [2] is “no binding”. Consider B3, for which, in assay [3], the binding result is on record as “no binding”.

The values above are taken from US20100169995A1 (RESEARCH FOUNDATION OF STATE UNIVERSITY OF NEW YORK, published 2010).
